Results on 3 proteins are retold here after paper PMC5406781, “Myxococcus xanthus DK1622 Coordinates Expressions of the Duplicate groEL and Single groES Genes for Synergistic Functions of GroELs and GroES” (Frontiers in Microbiology, 2017).

B1: Myxococcus xanthus DK1622 GroES without His-tag (natural protein, UniProt Q1D2S2 1-96, looked up)
chain: MKIRPLQDRLIVKRVAEENKTKGGLFIPDTAKEKPLEGKVIAVGNGKVQEDGKVRPLDIKAGDTILFSKYAGTEIKLDGEEHLILREEDVLGVIEK
notes: printed Mw 10.7 kDa; construct named NoHis; also called Cpn10; GroES-NoHis; source: E. coli BL21(DE3), pET28a-GroES-NoHis, in cell extract
B2: Myxococcus xanthus DK1622 GroEL2 (natural protein, UniProt Q1D3Y5 1-547, looked up)
chain: MAAKEIFFHQSAREAILRGVRTLSDAVAVTLGPKGRNVVIEKSFGSPTITKDGVTVAKEIDLENKFENMGAQMVKEVASKTSDKAGDGTTTATVLARAIYEEGLKLVAAGHSPMDLKRGIDKAVEVVVGELKSLSKPTADKKAITQVGTISANGDETIGAIIADAMEKVGKEGVITVEEAKGLETTLDVVEGMQFDRGYVSPYFVTNRERMEAVLEDPYILISEKKVSSMQDMIPLLEQVARSGKPLIIIADDIEGEALATLVVNKIRGVLNVCAVKAPGFGDRRKEMLQDIAVLTGGTVVSEDLGHKFETLTLTDLGRAKRVTVDKDNTTVVDGVGTKAAIEGRIKLIRTQIDSVTSDYDREKLQERLAKLVGGVAVINVGAATETEMKEKKARVEDALHATRAAVEEGIVPGGGVAYLRALPALEKLKPGGEQDFGVAIIRRALQEPLRKIASNAGVEGAVVINKVREGTGAFGYNARTEVYEDLEKAGVIDPTKVERTALQNAASVASLLLTTEAMVAERPKGKAKGGGAGAGMPDYGGDDMDY
notes: printed Mw 58.1 kDa; no His-tag added; UniProt may number the two paralogues the other way round (groL1 for the stand-alone gene); also called Cpn60; chaperonin GroEL; source: E. coli BL21(DE3), pET22b (pET22b-GroEL2-NoHis); purified (100-kDa cut-off concentration, Superdex 200) for the pull-down, in cell extract for native PAGE; copies: 14
B3: Myxococcus xanthus DK1622 GroEL1 (natural protein, UniProt Q1D2S1 1-549, looked up)
chain: MAKDILFDVRAREAILRGVNILADAVKVTLGPKGRNVVIEKSFGSPTITKDGVTVAKEIELENKFENMGAQMVKEVASKTSDVAGDGTTTATVLAQAIFREGAKLVAAGHNPMDIKRGIDKAVGAIVAELKKLAKPTKDKKEIAQVGTISANGDETIGTIIADAMEKVGKEGVITVEEAKGLETTLDVVEGMQFDRGYLSPYFVTDPERMEAALNDALILINEKKISSMKDLLPILEQVARAGKPLLIIAEDIEGEALATLVVNKIRGVLNVCAVKAPGFGDRRKAMLEDIATLTGGRMIAEDLGIKLDTITLQDLGRAKRITVDKDNTTIVDGAGGQQEIEARVKQIRAQIEETSSDYDREKLQERLAKLVGGVAVINVGAATETEMKEKKARVEDALNATRAAVEEGVVPGGGVAYIRCLKALDGLQLSGGEKFGVDIIRRAVEEPLRQIVGNGGLEGSVVVNKVKESSGPFGFNAATGTYEDLLAAGVIDPAKVSRTALQNAASVSSLMLTTEAMVAERPKEEKDLPAGGGMGGMGGMGGMGGMGM
notes: printed Mw 57.9 kDa; no His-tag added; UniProt may number the two paralogues the other way round (groL2 for the gene next to groES); also called Cpn60; chaperonin GroEL; source: E. coli BL21(DE3), pET22b (pET22b-GroEL1-NoHis); purified (100-kDa cut-off concentration, Superdex 200) for the pull-down, in cell extract for native PAGE; copies: 14

The data set deals with the molecule itself. Briefly: native gel or EMSA; native PAGE (no SDS or mercaptoethanol, run in ice-water) of extracts of E. coli BL21(DE3) cells expressing GroEL1, GroEL2 or GroES alone, or GroEL1/GroEL2 co-expressed with GroES. For orientation: A gel shift assay detects complexes by their altered migration in electrophoresis.
Usually stoichiometry N stands for a count of units in the complex or per binding partner. B1: the “stoichiometry N” value was found to be 7.
Then B2, with 14; and B3, with 14.
